Experimental findings from patent publication US20120178682A1, “GB1 Peptidic Compounds and Methods for Making and Using the Same” (priority 2010, published 2012) are described below.

Where a chain is given by its changes, count along the chain named. Names may count otherwise.

Usually Kd stands for a measure of binding affinity in units of concentration. The low end stands for a tighter complex, the high end for a looser complex. Usually koff stands for the first-order rate constant of dissociation. A low value points to slow dissociation. Broadly, the kon is a measure of how fast the partners come together. The low end stands for slower complex formation, the high end for faster complex formation.

Sequences and labels used below:
B1: E01 (recombinant, His-tagged) (designed binder)
chain: MKIEEHHHHHHHHHHGGSTYKLILNGKTLKGETTTEAVDVYDAFDVFFVYAASNFSDFDDWTYDDATKTFTVTEGGSDK
B2: E01-D39F/D27E (designed binder)
chain: B1 chain with D45E, D57F
B3: E01-D39F/V22L (designed binder)
chain: B1 chain with V40L, D57F
B4: E01-D39F/S35E (designed binder)
chain: B1 chain with S53E, D57F
B5: E01-D39F/S35R (designed binder)
chain: B1 chain with S53R, D57F
B6: E01-D39F/A34S (designed binder)
chain: B1 chain with A52S, D57F
B7: E01-D39F/S38G (designed binder)
chain: B1 chain with S56G, D57F
B8: E01-D39F/F40I (designed binder)
chain: B1 chain with D57F, F58I
B9: E01-D39F (designed binder)
chain: B1 chain with D57F
B10: E01-D39F/V31A (designed binder)
chain: B1 chain with V49A, D57F
B11: E01-D39F/S35G (designed binder)
chain: B1 chain with S53G, D57F

Chain of D-VEGF, synthetic D-protein form of VEGF-A(8-109) (Homo sapiens (Human)) (P15692 214-315 limits assumed, form in doubt): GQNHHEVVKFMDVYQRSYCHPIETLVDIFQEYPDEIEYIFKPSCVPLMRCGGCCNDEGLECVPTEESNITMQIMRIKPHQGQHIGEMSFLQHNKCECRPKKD

The first experiment has as its target D-VEGF, synthetic D-protein form of VEGF-A(8-109) (Homo sapiens (Human)) (UniProt P15692). The experiment is described as follows: SPR (ProteOn XPR36), D-VEGF immobilized.
B1 yielded a Kd of 13.4 nM, an off-rate constant (koff) of 0.00347 s⁻¹ and a kon of 260000 M⁻¹ s⁻¹.

For a further experiment the target is unchanged. The experiment is described as follows: SPR (ProteOn XPR36), D-VEGF immobilized. The source holds these as a separate data set.
B1: the dissociation constant (Kd) came to 3.46 nM, the off-rate (koff) turned out to be 0.00117 s⁻¹ and the kon is 338000 M⁻¹ s⁻¹.
Taken in the same sequence, the figures for B2 were 3.1 nM, 0.00158 s⁻¹ and 511000 M⁻¹ s⁻¹.
Taken in the same sequence, the figures for B3 were 1.14 nM, 0.00082 s⁻¹ and 719000 M⁻¹ s⁻¹.
B4: the dissociation constant Kd was 4.52 nM, the koff was 0.00205 s⁻¹ and the kon amounted to 454000 M⁻¹ s⁻¹.
With B5, the dissociation constant (Kd) came out at 5.35 nM, the dissociation rate constant (koff) amounted to 0.00183 s⁻¹ and the kon was found to be 341000 M⁻¹ s⁻¹.
Taken in the same sequence, the figures for B6 were 4.49 nM, 0.00174 s⁻¹ and 387000 M⁻¹ s⁻¹.
The molecule B7 came in with a dissociation constant Kd of 2.83 nM, a koff of 0.00131 s⁻¹ and a kon of 463000 M⁻¹ s⁻¹.
B8 displayed a Kd of 2.29 nM, a dissociation rate constant (koff) of 0.00138 s⁻¹ and an association rate constant (kon) of 602000 M⁻¹ s⁻¹.
With B9, the Kd was 3.48 nM, the koff amounted to 0.00132 s⁻¹ and the kon amounted to 380000 M⁻¹ s⁻¹.
Taken in the same sequence, the figures for B10 were 2.99 nM, 0.00167 s⁻¹ and 558000 M⁻¹ s⁻¹.
Taken in the same sequence, the figures for B11 were 5.4 nM, 0.00193 s⁻¹ and 358000 M⁻¹ s⁻¹.
